Consider 21 substances from patent publication US20080089892A1.

The target in experiment [1] is biotin-labeled soluble FcRn (Fc neonatal receptor). The experiment can be described thus: ELISA, biotin-FcRn captured on Neutravidin plate, single-point IgG, pH 6.0.
Experiment [2] has the same target. The experiment can be described thus: ELISA, biotin-FcRn captured on Neutravidin plate, single-point IgG, pH 7.0.
The target in experiment [3] is Human FcγRIIIa(158F) soluble extracellular domain with engineered 6-histidine tag (human) (UniProt P08637). The experiment can be described thus: KinExA, 7.5 nM IgG equilibrated with titrated soluble FcγRIIIa(158F), free IgG captured on receptor beads.
Experiment [4] has as its target human Fc gamma RI receptor (CD64), extracellular portion with C-terminal 6-his tag. The experiment can be described thus: ELISA: plate-coated human FcγRI (CD64) extracellular portion with 6-his tag; IgG titrated; bound IgG detected with anti-human kappa alkaline phosphatase conjugate, A560.

Sequence of UniProt P08637 (P08637 other isoform, or with tags, fused parts or gaps): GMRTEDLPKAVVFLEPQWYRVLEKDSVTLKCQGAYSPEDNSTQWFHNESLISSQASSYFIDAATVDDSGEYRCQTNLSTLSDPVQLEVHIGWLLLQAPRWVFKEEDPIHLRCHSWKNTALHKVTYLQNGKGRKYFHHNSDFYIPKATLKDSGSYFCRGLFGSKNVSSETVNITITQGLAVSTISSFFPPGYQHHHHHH
Sequence of human Fc gamma RI receptor (CD64), extracellular portion with C-terminal 6-his tag (chain, as listed by the source limits assumed): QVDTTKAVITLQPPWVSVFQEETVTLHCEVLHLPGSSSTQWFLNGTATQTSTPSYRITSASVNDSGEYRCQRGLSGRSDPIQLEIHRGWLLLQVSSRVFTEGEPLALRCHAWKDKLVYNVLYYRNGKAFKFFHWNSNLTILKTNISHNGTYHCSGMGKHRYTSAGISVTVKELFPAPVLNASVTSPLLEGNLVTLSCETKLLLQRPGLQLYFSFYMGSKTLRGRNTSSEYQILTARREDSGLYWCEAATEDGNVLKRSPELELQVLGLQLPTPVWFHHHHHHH

As for “anti-CD20 IgG Fc variant A330K (antibody)”, in experiment [1], the FcRn 6.0 (binding relative to parental) (% of parental (parental = 100)) is 104. In experiment [2], the FcRn 7.0 (binding relative to parental) (% of parental (parental = 100)) came to 99.

As to “anti-CD20 IgG Fc variant A330R (antibody)”, the FcRn 6.0 (binding relative to parental) (% of parental (parental = 100)) in experiment [1] stood at 77. Moreover, in experiment [2], the FcRn 7.0 (binding relative to parental) (% of parental (parental = 100)) came out at 101.

As to “anti-CD20 IgG Fc variant A339T (antibody)”, the FcRn 6.0 (binding relative to parental) (% of parental (parental = 100)) in experiment [1] was determined as 115. Moreover, the FcRn 7.0 (binding relative to parental) (% of parental (parental = 100)) in experiment [2] was determined as 109.

As for “anti-CD20 IgG Fc variant A378D (antibody)”, the FcRn 6.0 (binding relative to parental) (% of parental (parental = 100)) in experiment [1] stood at 122. Moreover, the FcRn 7.0 (binding relative to parental) (% of parental (parental = 100)) in experiment [2] was 93.

Regarding “anti-CD20 IgG Fc variant D280A (antibody)”, in experiment [1], the FcRn 6.0 (binding relative to parental) (% of parental (parental = 100)) worked out at 91. Further, the FcRn 7.0 (binding relative to parental) (% of parental (parental = 100)) in experiment [2] is 84.

In the case of “anti-CD20 IgG Fc variant D280K (antibody)”, the FcRn 6.0 (binding relative to parental) (% of parental (parental = 100)) in experiment [1] worked out at 103. The FcRn 7.0 (binding relative to parental) (% of parental (parental = 100)) in experiment [2] is 93.

In the case of “anti-CD20 IgG Fc variant H268D (antibody)”, the FcRn 6.0 (binding relative to parental) (% of parental (parental = 100)) in experiment [1] was 87. Besides, the FcRn 7.0 (binding relative to parental) (% of parental (parental = 100)) in experiment [2] is 84.

For “anti-CD20 IgG Fc variant H268E (antibody)”, the FcRn 6.0 (binding relative to parental) (% of parental (parental = 100)) in experiment [1] is 90. The FcRn 7.0 (binding relative to parental) (% of parental (parental = 100)) in experiment [2] amounted to 81.

Regarding “anti-CD20 IgG Fc variant I332D (antibody)”, the FcRn 6.0 (binding relative to parental) (% of parental (parental = 100)) in experiment [1] came to 91. In experiment [2], the FcRn 7.0 (binding relative to parental) (% of parental (parental = 100)) came to 102.

Take “anti-CD20 IgG Fc variant I332E (AME-133: variable region 33 with the I332E Fc variant sequence) (antibody)”: in experiment [1], the FcRn 6.0 (binding relative to parental) (% of parental (parental = 100)) worked out at 99. In addition, in experiment [2], the FcRn 7.0 (binding relative to parental) (% of parental (parental = 100)) was found to be 97. In experiment [3], this substance registered a Kd of 52 nM. Also, in experiment [4], the EC50 (read off the curve) came to 2 µg/mL.

On to “anti-CD20 IgG Fc variant I332K (antibody)”, for which the FcRn 6.0 (binding relative to parental) (% of parental (parental = 100)) in experiment [1] was 109. In experiment [2], the FcRn 7.0 (binding relative to parental) (% of parental (parental = 100)) came out at 97.

“anti-CD20 IgG Fc variant I332R (antibody)”: the FcRn 6.0 (binding relative to parental) (% of parental (parental = 100)) in experiment [1] was 97. Further, the FcRn 7.0 (binding relative to parental) (% of parental (parental = 100)) in experiment [2] turned out to be 92.

Consider “anti-CD20 IgG Fc variant L251F (antibody)”, for which, in experiment [1], the FcRn 6.0 (binding relative to parental) (% of parental (parental = 100)) came out at 102. For the same substance, the FcRn 7.0 (binding relative to parental) (% of parental (parental = 100)) in experiment [2] turned out to be 100.

Regarding “anti-CD20 IgG Fc variant P247H (antibody)”, the FcRn 6.0 (binding relative to parental) (% of parental (parental = 100)) in experiment [1] stood at 79. Moreover, the FcRn 7.0 (binding relative to parental) (% of parental (parental = 100)) in experiment [2] was found to be 73.

As for “anti-CD20 IgG Fc variant P247I (antibody)”, in experiment [1], the FcRn 6.0 (binding relative to parental) (% of parental (parental = 100)) worked out at 89. The FcRn 7.0 (binding relative to parental) (% of parental (parental = 100)) in experiment [2] worked out at 74.

Turning to “anti-CD20 IgG Fc variant P247L (antibody)”, in experiment [1], the FcRn 6.0 (binding relative to parental) (% of parental (parental = 100)) was 92. Moreover, the FcRn 7.0 (binding relative to parental) (% of parental (parental = 100)) in experiment [2] was found to be 78.

For the substance “anti-CD20 IgG Fc variant S440Y (antibody)”, the FcRn 6.0 (binding relative to parental) (% of parental (parental = 100)) in experiment [1] is 106. Further, the FcRn 7.0 (binding relative to parental) (% of parental (parental = 100)) in experiment [2] was 102.

As for “anti-CD20 IgG Fc variant T256M (antibody)”, the FcRn 6.0 (binding relative to parental) (% of parental (parental = 100)) in experiment [1] worked out at 72. Besides, the FcRn 7.0 (binding relative to parental) (% of parental (parental = 100)) in experiment [2] came out at 82.

As to “anti-CD20 IgG Fc variant T256P (antibody)”, the FcRn 6.0 (binding relative to parental) (% of parental (parental = 100)) in experiment [1] stood at 132. Moreover, the FcRn 7.0 (binding relative to parental) (% of parental (parental = 100)) in experiment [2] turned out to be 121.

In the case of “anti-CD20 IgG combinatorial Fc variant (L256P, I332E) (antibody)”, the Kd in experiment [3] is 21 nM. Besides, the EC50 (read off the curve) in experiment [4] turned out to be 1 µg/mL.

Regarding “wild type (parental Fc) anti-CD20 IgG (antibody)”, in experiment [1], the FcRn 6.0 (binding relative to parental) (% of parental (parental = 100)) turned out to be 100. For the same substance, the FcRn 7.0 (binding relative to parental) (% of parental (parental = 100)) in experiment [2] worked out at 100. In experiment [3], this substance returned a Kd of 387 nM.
